Reference: article PMC11564547, “An interaction network of inner centriole proteins organised by POC1A-POC1B heterodimer crosslinks ensures centriolar integrity” (Nature Communications, 2024)

B1: POC5-HA-TEV-2xFLAG (wild type POC5 of the POC5-Centrin2 complex from insect cells) (natural protein, human, UniProt Q8NA72 1-575, looked up)
chain: MSSDEEKYSLPVVQNDSSRGSSVSSNLQEEYEELLHYAIVTPNIEPCASQSSHPKGELVPDVRISTIHDILHSQGNNSEVRETAIEVGKGCDFHISSHSKTDESSPVLSPRKPSHPVMDFFSSHLLADSSSPATNSSHTDAHEILVSDFLVSDENLQKMENVLDLWSSGLKTNIISELSKWRLNFIDWHRMEMRKEKEKHAAHLKQLCNQINELKELQKTFEISIGRKDEVISSLSHAIGKQKEKIELMRTFFHWRIGHVRARQDVYEGKLADQYYQRTLLKKVWKVWRSVVQKQWKDVVERACQARAEEVCIQISNDYEAKVAMLSGALENAKAEIQRMQHEKEHFEDSMKKAFMRGVCALNLEAMTIFQNRNDAGIDSTNNKKEEYGPGVQGKEHSAHLDPSAPPMPLPVTSPLLPSPPAAVGGASATAVPSAASMTSTRAASASSVHVPVSALGAGSAATAASEEMYVPRVVTSAQQKAGRTITARITGRCDFASKNRISSSLAIMGVSPPMSSVVVEKHHPVTVQTIPQATAAKYPRTIHPESSTSASRSLGTRSAHTQSLTSVHSIKVVD
notes: POC5, human; cDNA from SinoBiological; No TEV cleavage is described; also called POC5-TEV-2xFLAG; full-length POC5; not shown: 2xFLAG (after a TEV site), C-terminal, kept
B2: Centrin2 (natural protein, human, UniProt P41208 1-172, looked up)
chain: MASNFKKANMASSSQRKRMSPKPELTEEQKQEIREAFDLFDADGTGTIDVKELKVAMRALGFEPKKEEIKKMISEIDKEGTGKMNFGDFLTVMTQKMSEKDTKEEILKAFKLFDDDETGKISFKNLKRVAKELGENLTDEELQEMIDEADRDGDGEVSEQEFLRIMKKTSLY
notes: Centrin2 (CETN2), human; amplified and cloned into pACEBac1; also called CETN2; CEN2; source: Sf21 insect cells (MultiBac baculovirus), co-expressed with POC5-TEV-2xFLAG, co-purified (anti-FLAG beads, SEC)
B3: POC5^Δ153-184-TEV-2xFLAG (of the POC5^Δ153-184-Centrin2 complex from insect cells) (natural protein, human, UniProt Q8NA72 1-575, looked up)
chain: MSSDEEKYSLPVVQNDSSRGSSVSSNLQEEYEELLHYAIVTPNIEPCASQSSHPKGELVPDVRISTIHDILHSQGNNSEVRETAIEVGKGCDFHISSHSKTDESSPVLSPRKPSHPVMDFFSSHLLADSSSPATNSSHTDAHEILVSDFLVSFIDWHRMEMRKEKEKHAAHLKQLCNQINELKELQKTFEISIGRKDEVISSLSHAIGKQKEKIELMRTFFHWRIGHVRARQDVYEGKLADQYYQRTLLKKVWKVWRSVVQKQWKDVVERACQARAEEVCIQISNDYEAKVAMLSGALENAKAEIQRMQHEKEHFEDSMKKAFMRGVCALNLEAMTIFQNRNDAGIDSTNNKKEEYGPGVQGKEHSAHLDPSAPPMPLPVTSPLLPSPPAAVGGASATAVPSAASMTSTRAASASSVHVPVSALGAGSAATAASEEMYVPRVVTSAQQKAGRTITARITGRCDFASKNRISSSLAIMGVSPPMSSVVVEKHHPVTVQTIPQATAAKYPRTIHPESSTSASRSLGTRSAHTQSLTSVHSIKVVD
notes: made with deletion primers from the POC5-TEV-2xFLAG CEN2 construct; source: insect cells (MultiBac baculovirus), co-expressed with Centrin2, purified (anti-FLAG beads, 3xFLAG peptide elution, SEC); not shown: 2xFLAG (after a TEV site), C-terminal, kept

Legend:
[1] = target: the molecule itself; assay: mass photometry; purified POC5-Centrin2 complex (co-expressed in insect cells, FLAG affinity and SEC); 1 µl of 400 nM protein in 19 µl SEC buffer (50 mM Tris pH 7.5, 150 mM NaCl, 1 mM MgCl2); Refeyn TwoMP
[2] = target: B1; assay: as above; details: both partners purified
[3] = target: the molecule itself; assay: negative stain EM; purified POC5-Centrin2 complexes (co-expressed in insect cells, FLAG affinity and SEC); 3% uranyl acetate; 2D classification and low-resolution 3D reconstruction

Binder: B1
- stoichiometry N [1]: 4

Binder: B2
- stoichiometry N [2]: ~6 Centrin2 molecules per POC5 tetramer

Binder: B3
- stoichiometry N [3]: 2
